PMC11348219
Values joined by “and” are separate entries in the source; they are usually repeats but may differ in a detail not shown here. Equal entries are not always repeated.

Target: mutant-1a anti-A scFv
Assay: non-reducing SDS-PAGE; elution fraction EfA1 of nickel affinity chromatography on a Coomassie-stained 15% SDS-PAGE gel, non-reducing

stoichiometry N: 2 and 3
B1: mutant-1a anti-A scFv (scFv, V domains shown)
VH: QVQLQQPGAELVKPGTSVKLSCKASGYNFTSYWINWVKLRPGQCLEWIGDIYPGSGITNYNEKFKSKATLTVDTSSSTAYMQLSSLASEDSALYYCAGQYGNLWFAYWGQGTLVTVSG
VL: DIQMTQTTSSLSASLGDRVTISCRASQDINNYLNWYQQKPDGTVKLLIHYTSRLHSGVPSRFSGSGSGTDYSLTISNLEQEDIATYFCQQGNTLPWTFGCGTKLEIK
